Patent publication US20020103111A1, “Inhibitors of MAdCAM-1-mediated interactions and methods of use therefor” (Millennium Pharmaceuticals, Inc., priority 1996, published 2002)
“And” between values parts separate entries of the source, which are not always exact repeats. Equal entries are not always repeated. Bridge positions count the residues as written; N and C are the ends. Ends that are not written are not given here. * marks the point of attachment. Butanoyl(4-pyren-1-yl) = O=C(CCCc1ccc2ccc3cccc4ccc1c2c34)*; Tpa = triphenylacetyl, O=C(C(c1ccccc1)(c1ccccc1)c1ccccc1)*; Acetyl(1-pyrenyl) = O=C(Cc1ccc2ccc3cccc4ccc1c2c34)*; Phenylacetyl(4-Ph) = O=C(Cc1ccc(-c2ccccc2)cc1)*; Benzoyl(4-heptyl) = CCCCCCCc1ccc(C(=O)*)cc1; Acetyl(1-naphthyl) = O=C(Cc1cccc2ccccc12)*; Diphenylacetyl = O=C(C(c1ccccc1)c1ccccc1)*; cPrCO(2,2,3,3-Me4) = CC1(C)C(C(=O)*)C1(C)C; Ibuprofenoyl = CC(C)Cc1ccc(C(C)C(=O)*)cc1; Hexanoyl(6-Ph) = O=C(CCCCCc1ccccc1)*; PhAc = O=C(Cc1ccccc1)*

Assays:
[1] = target: human α4β7 integrin (human), P13612; assay: inhibition of HUT 78 cell adhesion to murine MAdCAM-1/mCk at 250 µM
[2] = target: human α4β7 integrin (human), P13612; assay: inhibition of HUT 78 cell adhesion to murine MAdCAM-1/mCk
[3] = target: human α4β7 integrin (human), P13612; assay: inhibition of HUT 78 cell adhesion to murine MAdCAM-1/mCk at 500 µM
[4] = target: human α4β7 integrin (human), P13612; assay: inhibition of RPMI 8866 cell adhesion to huMAdCAM-1-Ig
[5] = target: human α4β7 integrin (human) (UniProt P13612); assay: inhibition of HUT 78 cell adhesion to murine MAdCAM-1/mCk at 500 µM
[6] = target: human α4β7 integrin (human) (UniProt P13612); assay: inhibition of HUT 78 cell adhesion to murine MAdCAM-1/mCk
[7] = target: human α4β7 integrin (human) (UniProt P13612); assay: inhibition of HUT 78 cell adhesion to murine MAdCAM-1/mCk at 50 µM

Ac-CLDTSLC (disulfide 1-7) [Ac-Cys*-Leu-Asp-Thr-Ser-Leu-Cys*]
% Adhesion Inhibition [1]: 51% | IC50 [2]: 102 µM

Ac-WRGLDTS (not fully specified (C-terminus); printed as Ac-Trp-Arg-Gly-Leu-Asp-Thr-Ser) [Ac-Trp-Arg-Gly-Leu-Asp-Thr-Ser]
IC50 [2]: 862 µM | % Adhesion Inhibition [3]: 44%

Ac-WRGLDT (not fully specified (C-terminus); printed as Ac-Trp-Arg-Gly-Leu-Asp-Thr) [Ac-Trp-Arg-Gly-Leu-Asp-Thr]
IC50 [2]: 725 µM | % Adhesion Inhibition [3]: 46%

Ac-RGLDTSL (not fully specified (C-terminus); printed as Ac-Arg-Gly-Leu-Asp-Thr-Ser-Leu) [Ac-Arg-Gly-Leu-Asp-Thr-Ser-Leu]
IC50 [2]: 1580 µM | % Adhesion Inhibition [3]: 35%

LDTSL (modifications not checked) [R1-Leu-Asp-Thr-Ser-Leu, L# 1491 (Table 4)]
IC50 [4]: 3.4 µM

Ac-GLDTSL (not fully specified (C-terminus); printed as Ac-Gly-Leu-Asp-Thr-Ser-Leu) [Ac-Gly-Leu-Asp-Thr-Ser-Leu]
IC50 [2]: 339 µM | % Adhesion Inhibition [3]: 58%

Ac-LDTSL-NH2 [Ac-Leu-Asp-Thr-Ser-Leu]
% Adhesion Inhibition [5]: 50% and 71% | IC50 [6]: 530 µM and 278 µM

Ac-RGLDTS (not fully specified (C-terminus); printed as Ac-Arg-Gly-Leu-Asp-Thr-Ser) [Ac-Arg-Gly-Leu-Asp-Thr-Ser]
IC50 [2]: 1790 µM | % Adhesion Inhibition [3]: 31%

Ac-GLDTS (not fully specified (C-terminus); printed as Ac-Gly-Leu-Asp-Thr-Ser) [Ac-Gly-Leu-Asp-Thr-Ser]
IC50 [2]: 745 µM | % Adhesion Inhibition [3]: 43%

Ac-HWRGLDT (not fully specified (C-terminus); printed as Ac-His-Trp-Arg-Gly-Leu-Asp-Thr) [Ac-His-Trp-Arg-Gly-Leu-Asp-Thr]
IC50 [2]: 584 µM | % Adhesion Inhibition [3]: 49%

Ac-RGLDT (not fully specified (C-terminus); printed as Ac-Arg-Gly-Leu-Asp-Thr) [Ac-Arg-Gly-Leu-Asp-Thr]
IC50 [2]: 542 µM | % Adhesion Inhibition [3]: 48%

{Hexanoyl(6-Ph)}-LDTSL (not fully specified (C-terminus); printed as Phx-Leu-Asp-Thr-Ser-Leu) [Phx-Leu-Asp-Thr-Ser-Leu]
% Adhesion Inhibition [5]: 32% | IC50 [6]: 818 µM

Ibuprofenoyl-LDTSL (not fully specified (C-terminus); printed as Impa-Leu-Asp-Thr-Ser-Leu) [Impa-Leu-Asp-Thr-Ser-Leu]
% Adhesion Inhibition [5]: 44% | IC50 [6]: 1140 µM

{Phenylacetyl(4-Ph)}-LDTSL (not fully specified (C-terminus); printed as Bipa-Leu-Asp-Thr-Ser-Leu) [Bipa-Leu-Asp-Thr-Ser-Leu]
% Adhesion Inhibition [5]: 54% | IC50 [6]: 485 µM

{Acetyl(1-naphthyl)}-LDTSL (not fully specified (C-terminus); printed as Npa-Leu-Asp-Thr-Ser-Leu) [Npa-Leu-Asp-Thr-Ser-Leu]
% Adhesion Inhibition [5]: 39% | IC50 [6]: 548 µM

{Benzoyl(4-heptyl)}-LDTSL (not fully specified (C-terminus); printed as Hbz-Leu-Asp-Thr-Ser-Leu) [Hbz-Leu-Asp-Thr-Ser-Leu]
% Adhesion Inhibition [5]: 51% | IC50 [6]: 401 µM

{Butanoyl(4-pyren-1-yl)}-LDTSL (not fully specified (C-terminus); printed as Pba-Leu-Asp-Thr-Ser-Leu) [Pba-Leu-Asp-Thr-Ser-Leu (00386-1A)]
% Adhesion Inhibition [7]: 88% | IC50 [6]: 2.8 µM

Ac-LDTSL (not fully specified (C-terminus); printed as Ac-Leu-Asp-Thr-Ser-Leu) [Ac-Leu-Asp-Thr-Ser-Leu (00389-1A)]
% Adhesion Inhibition [5]: 29% | IC50 [6]: 205 µM

Ac-LDASL (not fully specified (C-terminus); printed as Ac-Leu-Asp-Ala-Ser-Leu) [Ac-Leu-Asp-Ala-Ser-Leu]
IC50 [2]: 1000 µM | % Adhesion Inhibition [3]: 47%

{cPrCO(2,2,3,3-Me4)}-LDTSL [Tpc-Leu-Asp-Thr-Ser-Leu]
% Adhesion Inhibition [5]: 39% | IC50 [6]: 121 µM

PhAc-LDTSL (not fully specified (C-terminus); printed as Pha-Leu-Asp-Thr-Ser-Leu) [Pha-Leu-Asp-Thr-Ser-Leu]
% Adhesion Inhibition [5]: 38% | IC50 [6]: 2130 µM

Tpa-LDTSL [Tpa-Leu-Asp-Thr-Ser-Leu]
IC50 [6]: 0.3 µM

{Acetyl(1-pyrenyl)}-LDTSL (not fully specified (C-terminus); printed as Paa-Leu-Asp-Thr-Ser-Leu) [Paa-Leu-Asp-Thr-Ser-Leu]
IC50 [6]: 0.5 µM

PLDTSL (modifications not checked) [Pba-Pro-Leu-Asp-Thr-Ser-Leu]
IC50 [2]: 47 µM

Diphenylacetyl-LDTSL (not fully specified (C-terminus); printed as Dpa-Leu-Asp-Thr-Ser-Leu) [Dpa-Leu-Asp-Thr-Ser-Leu]
IC50 [6]: 11 µM

LATSL (modifications not checked) [Pba-Leu-Ala-Thr-Ser-Leu]
% Adhesion Inhibition [1]: 100% | IC50 [2]: 28 µM

Ac-LFTSL (not fully specified (C-terminus); printed as Ac-Leu-Phe-Thr-Ser-Leu) [Ac-Leu-Phe-Thr-Ser-Leu]
IC50 [2]: 300 µM | % Adhesion Inhibition [3]: 29%

Ac-LETSL (not fully specified (C-terminus); printed as Ac-Leu-Glu-Thr-Ser-Leu) [Ac-Leu-Glu-Thr-Ser-Leu]
IC50 [2]: 60.7 µM | % Adhesion Inhibition [3]: 98%

LYTSL (modifications not checked) [Pba-Leu-Tyr-Thr-Ser-Leu]
IC50 [2]: 30 µM | % Adhesion Inhibition [3]: 100%

Ac-LDSSL (not fully specified (C-terminus); printed as Ac-Leu-Asp-Ser-Ser-Leu) [Ac-Leu-Asp-Ser-Ser-Leu]
IC50 [2]: 611 µM | % Adhesion Inhibition [3]: 38%

Ac-LDTTL (not fully specified (C-terminus); printed as Ac-Leu-Asp-Thr-Thr-Leu) [Ac-Leu-Asp-Thr-Thr-Leu]
IC50 [2]: 101 µM | % Adhesion Inhibition [3]: 98%

Ac-LDTSF (not fully specified (C-terminus); printed as Ac-Leu-Asp-Thr-Ser-Phe) [Ac-Leu-Asp-Thr-Ser-Phe]
IC50 [2]: 144 µM | % Adhesion Inhibition [3]: 86%

Ac-LDVSL (not fully specified (C-terminus); printed as Ac-Leu-Asp-Val-Ser-Leu) [Ac-Leu-Asp-Val-Ser-Leu]
IC50 [2]: 71 µM
